Laboratory results as given in the DeepSol protein solubility set.

Test: soluble on expression in E. coli; label from the status in PepcDB or PDB records

Sequence	soluble on expression in E. coli
MSLADLFASPDDAAAGGAPDTAPLADRLRPRTLGDVVGQEHLTGPDGAIGRMVAAGRLSSIIFWGPPGTGKTTISRLLAHAVGMRFEPISAVFSGVADLKKVFAAAKDHARHGEKTLLFVDEIHRFNRAQQDSFLPFVENGTVTLVGATTENPSFELNAALLSRAQVLILRRLDAAALEQLLDRAEGLMERPLPLDPAAREALLASADGDGRFLLNQVETLYAIDIPEPLDPAGLSALLHRRVAVYDKDREGHYNLISALHKSLRGSDPQAALYYLARMLTAGEEPLYVLRRLVRFATEDIGLADPQAVVQCLAAKDAYDFLGSPEGELAIVQACLYCATAPKSNAAYMAMKASFRSARETGSLMPPMNIVNAPTKLMKQVGYGKNYQYDHDAAEGFSGANYWPEEMEAQTFYAPTDRGFEARVAERMAYWDRLRAERGEGHHHHHH	soluble
MKALKLYGVEDLRYEDNEKPVIESANDVIVKVRATGICGSDTSRYKKMGPYIKGMPFGHEFSGVVDAIGSDVTHVNVGDKVTGCPAIPCYQCEYCLKGEYARCEKLFVIGSYEPGSFAEYVKLPAQNVLKVPDNVDYIEAAMVEPSAVVAHGFYKSNIQPGMTVAVMGCGSIGLLAIQWARIFGAAHIIAIDIDAHKLDIATSLGAHQTINSKEENLEKFIENHYANQIDLAIESSGAKVTIGQILTLPKKGGEVVLLGIPYDDIEIDRVHFEKILRNELTVCGSWNCLSSNFPGKEWTATLHYMKTKDINVKPIISHFLPLEKGPETFDKLVNKKERFDKVMFTIY	not soluble
DSLVFVQTDKSIYKPGQTVKFRVVSMDENFHPLNELIPLVYIQDPKGNRIAQWQSFQLEGGLKQFSFPLSSEPFQGSYKVVVQKKSGGRTEHPFTVEEFVLP	soluble
MSLSFQMKYDIRLRFEVEGIVEKTDVIGAIFGQTENLFGDEFDLRELQDKGRLGRIIVEVKTKGGKSEGEIIIPSNLDRIETALIAAMVESVDKVGPYNSKFELIEIEDIRAEKLKKIIERAKGILSSWSKEKSLDIKEVINEISSAVKVGEITEYGPERLPAGPDVDKDPNLIIVEGRADVINLLRYGYKNVIAVEGATSRIPETLINLSKMKKTVIAFLDGDHGGDLILKELLSNNVKIDFVARAPIGREVEELTGKEIAKALSNMMPLTQYLKKVQEAEQAIAKNVIAKEEKPIQSETTQQVVQITLPQNILEEIKKLPGTLEGVLYDNNWNLIEKVQVRDIIPKLEAYEDNKVAYIIFDGVITQRLLDLASQKNIKMIIGARIGGINKRPQNVDILTFTDIISSEGHHHHHH	soluble
ISAVIVGTAEDIYSRVLALMCQRKGAVSICLQHGALMGDEAFIPVFTTYQAVFGAYEAEWFIRKGCKPEQILVTGHPRFDQIFNRTPMDMSIFYRKLAFQPTKKIVLIATQPFSEDFYSGVLQGLSDQKQLQIIIKPHPWEIGKNKLDLYHEAAKKHQACRVIKKELELYDLLPYVDAAVTQTSTVGLEAMLFQKPVLIGKSSGNRSYPYYESLGDFMFDQPDELAHTLVEVLRSP	not soluble
MKITFLGAAKTVTGSCFFVETASTKFLVDCGMFQGYSKNNALNEEEFPFNVEELDYIFLTHAHIDHSGRIPRIYIKGFRGQIIATKATVELCAIMLPDSGHIQEYENEWTNRKRLRAGKPPVEPLYTYQDAVNCLELFRKVSYDEVIKINDEIRVRFRDAGHILGSAIIEMWINERGEEIKIVFSGDLGNKDIPILRDPSIIESADYLVIESTYGNRLHNERVDKAEYFLNLINSTIEKGGNVIIPSFAAGRTQELIYELNKKKEVYDEKLKMLFATPVYIDSPMAISATEVFRNNLDCYDEEAREYIENGDNPLDFPGLQFTRTAEESKALNERKESSIIIAASGMCEAGRIRHHLKHNLWRKDSTIIFVGYQAEGTLGRRLLDGAKKVRLFGEEISVEARIEMIEGFSGHADKEGLLKWIERFNRKPKKIFIVHGEEDAMIEFSEEINRRFNIETVIPSRGESFILNAHNVIAIDEKVRPDNSFRILQVVEKLENIKEEVEELSYILKSDLKQDKTDLELDELMAKLKNIEKSILEALK	not soluble
SNAMTLTALNAISPIDGRYVNKTRALSPYFSEFALTYYRLMVEIKWFESLAANDTIPEVPALDNKARKFLSDLISNFNESEAEKIKEFEKQTNHDVKAVEYYLQDKFQENEQLKSCVAFIHFACTSEDINNLAYALMIKQAIAQVIQPTIAEIMGSITLLGKQHADVAMLSRTHGQPATPTTMGKELVNFVARLKRPQQQLAEVLIPAKFNGAVGNYNAHVAAYPEVDWRKHCANFVTSLGLSFNAYTTQIEPHDGIAEVSQIMVRINNILLDYTQDIWSYISLGYFKQKTIAEEVGSSTMPHKVNPIDFENAEGNLGLSNALFIHFANKLTQSRMQRDLSDSTVLRNLGVAFSYSLIAYHSVAKGNDKLQINKSALQKDLSENWEVLAEAIQTVMRRYNEPNAYEQLKELTRGQMIDAENLKKFIKTLSIPEEAKAELMKLTPETYTGLATQLVKAFS	soluble
MRGSHHHHHHGSVEVQVLIENVVFARNFVAEHGLSLLLKKGNKEIVVDTGQSENFIKNCGLMGIDVGRIKKVVLTHGHYDHIGGLKGLLERNPEVKIYTHKEILNKKYAMRKGGQFEEIGFDLSFYEKYKNNFVLIDKDAEIEEGFYVITNTDITYDNEFTTKNFFVEKEGKRIPDKFLDEVFVVVKEEDGINVVTGCSHAGILNILETARNRFGVSYIKSLIGGFHLRGMEEEKVKDIARKIEEYGVKKVLTGHCTGIDEYGFLKSVLKDKISYLTTSSSIVV	soluble
MGSDKIHHHHHHMIHVAHHYEMRHPTADIQETSMSSAQEERLRFIDFRLMFLGDVSRQDLTDRFGISEPAATRDLTQYRERCAANMEYSHVQRAYLRNYNFAPLYDHESTEALAMIAHGHLALPRRERKPLLRCDLPIQLDSPDSMVVSTITRAINHQHVISIDYRSHSSGETRRQIVPFALVDNGLRWHIRAYDRRRLRFSDFVISRISNPTIEESVVLTHERWEHDIQWNRIVELELVPHPKRPHPETTLFEYGMVNGISRLRVRAAVAGYFLRRWNVDCSPDHCLEGNEYQLWLKNRETLYGVETLEIAPGYL	not soluble
MGSDKIHHHHHHVSDTVDHNAWKTTGVVVIQNDVLTLAGSNARALLNDGKGYTNFELDMDVRTTTGGKGYIGIHTDATDRKGYRIALNNDREDPVWWRMTGSLVSVRNLTKSFVKENEWFKMNIRVEGRLIRVRINGETVVEYIEPSKPFRLKENAKALLSQGTISLVGTGRGNLQFKNISLEAFSAKGIDIPAQWANAVDEQTDEIIRLHQEDFPVLDYHVHLKGGLTKEVAARQSRQTGVNYGLAINCGIGFSITNDTELYNYLDTMRTQPFILAMQAEGREWVTTFSEAARNSFDYVFTDAMTFLDHKGRRTHLWVNKEVIIDDEQAYMDMMLDRICSVLEEPVDMYVNSCFLPDAMSDRYDMFWTEERIDRFVNALAKSGKALEINELYHIPNKAIIQKAKAAGVKFTFGSNNITPEVGTLDYCIRMKKECGLTAQDMYKPHINI	not soluble
MERYPPIADHGLVGDLQTAALVSSQGVIDWFAAPRFDSPSIFASLLDHDGGGHFLLAPEHPEGTWRQLYYPDTGVVVTRFMSPDGVGEIIDYMPVLPGPTASDRHSLVRIVRSVRGTVRFRLVCRPRFDYLEHHHHHH	not soluble
MSLGSFTDVPANSQFYTEISWLASQGISTGWVEANGTSTYRPALAVNRDAMAAFMYRLAGSPAYTPPGTSPFIDVTPQTQFYKEIAWLASKGISTGWDEGNGAKSYRPLQTVNRDAMAAFMYRFAGSPAYNAPGASLFTDVVPQTQFYKEINWLASMNISTGWVEGNGTRTFRPVQSVNRDAMAAFMYRYNNAFPAEGHHHHHH	not soluble
MGSDKIHHHHHHMTKSKISNPKLPMALQTSTIFSLQAPKDISLNEIDAELNQIWQSYGITGEDGGLPSATRATTFTLVVYEPEETQYLLAALGFYNGPIDGILGPQMAAALREVQKKHKLPETGTATQETLTILREEFAKGQRGGTGGEHAIAGLNSSSPRIADEIALRNPCRIIALFPITGEDEGVKAQVSAYCPIQKQSSSTLICCEYITLSGTAAALERIGGMIPALLIGGLPKFLWWKATPDPNNGLFKRLAAICNNVIVDSCNFNEPESDLLRLEELVEAGVPLADLNWRRLASWQELTAEAYDSPKRRAALREIDRVTIDYEKGNPAQALLFLGWLASRLEWQPVSYQKESGDYDITRIHFISQDQRQVEAELAGVPVADVGDIIGDLIALRLSSTNPQADCGTVICSETGGCMRMETHGGAQSAGLFQQVTSLSEQKAEALLSQQVQRWGRESLFEESLGVTANIFKLAN	not soluble
MGHHHHHHSHMYLRHDKPPYTYLAMIALVIQAAPSRRLKLAQIIRQVQAVFPFFREDYEGWKDSIRHNLSSNRCFRKVPKDPAKPQAKGNFWAVDVSLIPAEALRLQNTALCRRWQNGG	soluble
MSKIASEVVATTLNDWYIAIKKQKVDESIKYYSEIKKLFDEMEEDQEVLAYYSLLEERHKMLLHSSRGEPLQKHTYFTEDNQNFITKTNDKLEYNFYLFEAMYEAYNKNYDRAINLYGLAEKKLAEIPDEIEAAEFYSKVSYLYTLVKQSIVAQHYIKNAISIYKRHPDYKCKLATSTMIAAANYADMKRFEEAEQYYLEAIDIAKETKDEFLKAQLFHNLSIVYSDWNKPDKCIESLEKAIGNESWLHSIYYINSLFMMIKELFKIDEKMKAINFYNKAQERLILMENKVYEAKISILYNLYCGELKNNFNNCISNIEFLKQQNELESVDELSYIAAKRFESIGAFEEATSFFNAKIWAEQKMNQVEGIL	not soluble
MIEKVYCQEVKPELDGKKVRLAGWVYTNMRVGKKIFLWIRDSTGIVQAVVAKNVVGEETFEKAKKLGRESSVIVEGIVKADERAPGGAEVHVEKLEVIQAVSEFPIPENPEQASPELLLDYRHLHIRTPKASAIMKVKETLIMAAREWLLKDGWHEVFPPILVTGAVEGGATLFKLKYFDKYAYLSQSAQLYLEAAIFGLEKVWSLTPSFRAEKSRTRRHLTEFWHLELEAAWMDLWDIMKVEEELVSYMVQRTLELRKKEIEMFRDDLTTLKNTEPPFPRISYDEAIDILQSKGVNVEWGDDLGADEERVLTEEFDRPFFVYGYPKHIKAFYMKEDPNDPRKVLASDMLAPEGYGEIIGGSQREDDYDKLLNRILEEGMDPKDYEWYLDLRRYGSVPHSGFGLGVERLVAWVLKLDHIRWAALFPRTPARLYP	soluble
MGSDKIHHHHHHMRRLPPLNALQIFATVARHRSFTRAADALCVTQGAISRQIQSLEAHYGFALFMRHARGLTLTVEGEQLLPVVVESFARIEDISLKLTRQRTDLALKVPTCVMRWVLPRIMRFQREHPDLHVQMTTTWRHDVDFQSEPFDAAIVYGMSPGPDVAAVPLFDERLTPVCAPDLLEGRPLARVEDLACHTLLHPTRDHRDWRRWLDYAGAAGVDPDRGPSFDSLDLATSAATQGFGVALGDLTLSEEDFAARRLAMPLDIVQRTGARYYFVYPESVAQQQKIQRFSAWLDANRD	not soluble
MQLDTIHKITGTLILKSGLHIGAGDSEMRIGGTDSPVVKDPLTDQPYIPGSSLKGKIRSLLEWRHGLVVATGGAPYSFKHLAQDENNSAGRDVIKLFGGAPDKAEDQLVKNIGPTRLAFWDCPLNGDWKKEAADSRHLLTTEVKSENSINRIAGTAEHPRFIERVIAGARFDFTLTLKVLEGDDLLNTVLLGLRLLELDSLGGSGSRGYGKIKFAELKLDGTDLMEQFHAITPFNQTA	not soluble
MAHHHHHHMSRLVMTAPPSLPPFLLLSGASSPPPPPISHTHTHTHTHTHTAMASLAHLSTPLPSEPSAAAPPPAASAPAGALHLERFLESVLKQNLDTVLSQRDELYATVAQCAQLRWLMDDMQALSRYHSFIEASTAAETAAAVPLSALSPVASGSPNASLPLMSKRAQADAYKPPQKNKVLVDLGNHFYTQGVVKDAGVLFMNMGCGVVLPMSLDEAREFLRKKEAVVRRMIMNKSKEALRIKYRIRLVTEAIARLHERHLGL	not soluble
